Assay results from paper PMC12421828.

Each substance was assayed against FLAG-14-3-3ε (pCAGG-FLAG 14-3-3ε of Figure 5, isoform not told) (assay: co-immunoprecipitation (anti-FLAG IP), immunoblot band quantification). Details: BSR cells co-transfected; immunoprecipitation at 24 h post-transfection; parent: est. 0.76; read off a plot.
In the case of HA2B* expressed from pCAGG-HA2B* S17A, the response (Elution / Input) is reported as 1.5. In the case of HA2B* expressed from pCAGG-HA2B* S19E, the response (Elution / Input) is reported as 0.76. Substance HA2B* expressed from pCAGG-HA2B* S19A has a response (Elution / Input) of 1.1. HA2B* expressed from pCAGG-HA2B* S17E gave a response (Elution / Input) of 1.7. Substance HA2B* expressed from pCAGG-HA2B* S17D has a response (Elution / Input) of 1.4. Substance HA2B* expressed from pCAGG-HA2B* S19D has a response (Elution / Input) of 1.9.
